Test results reported in PMC5294574, “Stoichiometry and structure of a lantibiotic maturation complex” (Scientific Reports, 2017).
Blank lines part the entries; values can stand above or below the molecule they belong to.

Assays:
[1] = biological target: NisB (lantibiotic dehydratase) (Lactococcus lactis) (UniProt P20103); experiment: SEC-MALS; 20 μM NisC or 20 μM NisB incubated with 200 μM unmodified prenisin peptide for 1 h at 25 °C; 50 mM HEPES-NaOH, pH 7.5, 500 mM NaCl
[2] = biological target: NisC (lantibiotic cyclase) (Lactococcus lactis) (UniProt Q03202); experiment: as above
[3] = biological target: NisB (lantibiotic dehydratase) (Lactococcus lactis) (UniProt P20103); experiment: SEC-MALS; 20 μM NisB and 200 μM prenisin peptide variant kept constant, NisC varied from 10 μM to 160 μM; 50 mM HEPES-NaOH, pH 7.5, 500 mM NaCl
[4] = biological target: NisC (lantibiotic cyclase) (Lactococcus lactis) (UniProt Q03202); experiment: as above
[5] = biological target: the molecule itself; experiment: SEC-MALS; isolated NisB or NisC, 200 μL of a 20 μM solution; 50 mM HEPES-NaOH, pH 7.5, 500 mM NaCl

NisC (lantibiotic cyclase) (Lactococcus lactis), sequence (Q03202 whole entry): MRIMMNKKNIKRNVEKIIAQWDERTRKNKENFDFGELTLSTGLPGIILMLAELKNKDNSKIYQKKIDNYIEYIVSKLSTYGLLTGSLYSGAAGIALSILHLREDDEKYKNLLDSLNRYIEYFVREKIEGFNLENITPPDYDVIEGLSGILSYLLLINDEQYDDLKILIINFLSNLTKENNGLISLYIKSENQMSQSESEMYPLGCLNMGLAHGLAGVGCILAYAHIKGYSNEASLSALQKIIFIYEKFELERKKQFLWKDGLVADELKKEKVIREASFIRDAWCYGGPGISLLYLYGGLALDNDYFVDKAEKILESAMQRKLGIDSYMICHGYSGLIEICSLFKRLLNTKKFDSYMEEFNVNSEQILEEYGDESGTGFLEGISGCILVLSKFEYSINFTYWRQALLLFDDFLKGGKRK

stoichiometry N (per NisB dimer) [1]: 1
stoichiometry N (per NisC monomer) [2]: 1
stoichiometry N (prenisin per NisB dimer) [3]: 1
stoichiometry N (prenisin per NisC monomer) [4]: 1
Molecule: unmodified prenisin peptide

B1: NisB (lantibiotic dehydratase) (enzyme, Lactococcus lactis)
chain: MIKSSFKAQPFLVRNTILCPNDKRSFTEYTQVIETVSKNKVFLEQLLLANPKLYDVMQKYNAGLLKKKRVKKLFESIYKYYKRSYLRSTPFGLFSETSIGVFSKSSQYKLMGKTTKGIRLDTQWLIRLVHKMEVDFSKKLSFTRNNANYKFGDRVFQVYTINSSELEEVNIKYTNVYQIISEFCENDYQKYEDICETVTLCYGDEYRELSEQYLGSLIVNHYLISNLQKDLLSDFSWNTFLTKVEAIDEDKKYIIPLKKVQKFIQEYSEIEIGEGIEKLKEIYQEMSQILENDNYIQIDLISDSEINFDVKQKQQLEHLAEFLGNTTKSVRRTYLDDYKDKFIEKYGVDQEVQITELFDSTFGIGAPYNYNHPRNDFYESEPSTLYYSEEEREKYLSMYVEAVKNHNVINLDDLESHYQKMDLEKKSELQGLELFLNLAKEYEKDIFILGDIVGNNNLGGASGRFSALSPELTSYHRTIVDSVERENENKEITSCEIVFLPENIRHANVMHTSIMRRKVLPFFTSTSHNEVLLTNIYIGIDEKEKFYARDISTQEVLKFYITSMYNKTLFSNELRFLYEISLDDKFGNLPWELIYRDFDYIPRLVFDEIVISPAKWKIWGRDVNSKMTIRELIQSKEIPKEFYIVNGDNKVYLSQKNPLDMEILESAIKKSSKRKDFIELQEYFEDENIINKGEKGRVADVVVPFIRTRALGNEGRAFIREKRVSVERREKLPFNEWLYLKLYISINRQNEFLLSYLPDIQKIVANLGGNLFFLRYTDPKPHIRLRIKCSDLFLAYGSILEILKRSRKNRIMSTFDISIYDQEVERYGGFDTLELSEAIFCADSKIIPNLLTLIKDTNNDWKVDDVSILVNYLYLKCFFQNDNKKILNFLNLVSTKKVKENVNEKIEHYLKLLKVNNLGDQIFYDKNFKELKHAIKNLFLKMIAQDFELQKVYSIIDSIIHVHNNRLIGIERDKEKLIYYTLQRLFVSEEYMK
notes: Nisin dehydratase NisB of Lactococcus lactis; theoretical molecular weight of the dimer 236.6 kDa; Dimer by MALS-SEC and SAXS; also called dehydratase NisB; apo-NisB; source: L. lactis NZ9000, homologously expressed, purified (IMAC, SEC)
stoichiometry N [5]: 2
